Measurements from PMC2833280.
Where a chain is given by its changes, count along the chain named. Numbers in names are those of the source.

B1: β-LS (β-lactam synthetase) (Streptomyces clavuligerus; Y348F) (protein)
chain: MGAPVLPAAFGFLASARTGGGRAPGPVFATRGSHTDIDTPQGERSLAATLVHAPSVAPDRAVARSLTGAPTTAVLAGEIYNRDELLSVLPAGPAPEGDAELVLRLLERYDLHAFRLVNGRFATVVRTGDRVLLATDHAGSVPLYTCVAPGEVRASTEAKALAAHRDPKGFPLADARRVAGLTGVYQVPAGAVMDIDLGSGTAVTHRTWTPGLSRRILPEGEAVAAVRAALEKAVAQRVTPGDTPLVVLSGGIDSSGVAACAHRAAGELDTVSMGTDTSNEFREARAVVDHLRTRHREITIPTTELLAQLPYAVWASESVDPDIIEYLLPLTALYRALDGPERRILTGFGADIPLGGMHREDRLPALDTVLAHDMATFDGLNEMSPVLSTLAGHWTTHPYWDREVLDLLVSLEAGLKRRHGRDKWVLRAAMADALPAETVNRPKLGVHEGSGTTSSFSRLLLDHGVAEDRVHEAKRQVVRELFDLTVGGGRHPSEVDTDDVVRSVADRTARGAA
B2: β-LS (β-lactam synthetase) (Streptomyces clavuligerus) (protein)
chain: B1 chain with F348Y
B3: β-LS (β-lactam synthetase) (Streptomyces clavuligerus; E382D) (protein)
chain: B1 chain with F348Y, E382D
B4: β-LS (β-lactam synthetase) (Streptomyces clavuligerus; Y348A) (protein)
chain: B1 chain with F348A

Tests used:
purified protein [1] = substrate: N=C(N)NCCC[C@H](NCCC(=O)O)C(=O)O; test: purified protein; format: biochemical, Streptomyces clavuligerus; details: pH 8.8, 25 °C, saturating ATP (2-4 mM), ionic strength 0.1
purified protein [2] = substrate: O=C(O)C[C@@H]1CC[C@@H](C(=O)O)N1; test: purified protein; format: biochemical, Streptomyces clavuligerus; details: pH 8.3, 25 °C, 2 mM ATP, ionic strength 0.1

Protein | Km (purified protein [1]) [µM] | kcat (purified protein [1]) [s⁻¹] | kcat/Km (purified protein [1]) [M⁻¹ s⁻¹] | Km (purified protein [2]) [µM] | kcat (purified protein [2]) [s⁻¹]
B1 | 1400 ± 200 | 0.155 ± 0.007 | 110 ± 20 |  | 
B2 |  |  |  | 4900 ± 700 | 0.026 ± 0.002
B3 | 2800 ± 200 | 0.193 ± 0.006 | 69 ± 6 |  | 
B4 | 190 ± 20 | 0.0082 ± 0.0002 | 43 ± 4 |  | 
